Measurements reported in patent US20030049646A1 (METROHEALTH SYSTEM, published 2003).

T1: KChAP (K+ Channel Associated Protein), full length, in pGAD10 (rat, UniProt O70260 55-628)
T1 construct: Yeast two-hybrid construct; also called full length KChAP
T1 sequence: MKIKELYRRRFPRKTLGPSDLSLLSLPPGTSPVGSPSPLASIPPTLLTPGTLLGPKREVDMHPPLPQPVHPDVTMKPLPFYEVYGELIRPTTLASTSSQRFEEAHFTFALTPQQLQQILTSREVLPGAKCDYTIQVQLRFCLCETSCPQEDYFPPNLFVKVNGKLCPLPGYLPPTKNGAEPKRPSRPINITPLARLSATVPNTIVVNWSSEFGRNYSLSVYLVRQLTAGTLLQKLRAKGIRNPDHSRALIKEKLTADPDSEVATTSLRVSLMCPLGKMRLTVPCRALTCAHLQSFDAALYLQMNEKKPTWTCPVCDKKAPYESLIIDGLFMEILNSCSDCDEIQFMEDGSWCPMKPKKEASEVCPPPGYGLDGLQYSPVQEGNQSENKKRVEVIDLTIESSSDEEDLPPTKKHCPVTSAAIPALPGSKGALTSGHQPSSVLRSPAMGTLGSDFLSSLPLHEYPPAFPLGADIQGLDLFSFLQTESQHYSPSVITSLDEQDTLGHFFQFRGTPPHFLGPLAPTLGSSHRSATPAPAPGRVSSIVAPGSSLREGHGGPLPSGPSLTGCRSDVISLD

B1: HERG N-terminus (amino acids 1-396), in pGBT9 (other, UniProt P04386 1-147, looked up)
chain: MKLLSSIEQACDICRLKKLKCSKEKPKCAKCLKNNWECRYSPKTKRSPLTRAHLTEVESRLERLEQLFLLIFPREDLDMILKMDSLQDIKALLTGLFVQDNVNKDAVTDRLASVETDMPLTLRQHRISATSSSEESSNKGQRQLTVSMPVRRGHVAPQNTFLDTIIRKFEGQSRKFIIANARVENCAVIYCNDGFCELCGYSRAEVMQRPCTCDFLHGPRTQRRAAAQIAQALLGAEERKVEIAFYRKDGSCFLCLVDVVPVKNEDGAVIMFILNFEVVMEKDMVGSPAHDTNHRGPPTSWLAPGRAKTFRLKLPALLALTARESSVRSGGAGGAGAPGAVVVDVDLTPAAPSSESLALDEVTAMDNHVAGLGPAEERRALVGPGSPPRSAPGQLPSPRAHSLNPDASGSSCSLARTRSRESCASVRRASSADDIEAMRAGVLPPPPRHASTGAMHPLRSGLLNSTSDSDLVRYRTISKIPQITLNFVDLKGDPFLASPTSDREIIAPKIKERTHNVTEKVTQVLSLGADVLPEYKLQAPRIH
notes: also called N-terminus of the delayed rectifier K+ channel, HERG

What was measured:
Assay in all cases: yeast two-hybrid (Y190, pGAD10 x pGBT9), β-galactosidase filter assay
[1] = target: T2, human Gu binding protein (GBP), in pGAD10 (human, UniProt O75925 55-651, limits assumed)
T2 construct: Comparison protein, about 50% homologous to KChAP
T2 sequence (O75925 55-651 limits assumed): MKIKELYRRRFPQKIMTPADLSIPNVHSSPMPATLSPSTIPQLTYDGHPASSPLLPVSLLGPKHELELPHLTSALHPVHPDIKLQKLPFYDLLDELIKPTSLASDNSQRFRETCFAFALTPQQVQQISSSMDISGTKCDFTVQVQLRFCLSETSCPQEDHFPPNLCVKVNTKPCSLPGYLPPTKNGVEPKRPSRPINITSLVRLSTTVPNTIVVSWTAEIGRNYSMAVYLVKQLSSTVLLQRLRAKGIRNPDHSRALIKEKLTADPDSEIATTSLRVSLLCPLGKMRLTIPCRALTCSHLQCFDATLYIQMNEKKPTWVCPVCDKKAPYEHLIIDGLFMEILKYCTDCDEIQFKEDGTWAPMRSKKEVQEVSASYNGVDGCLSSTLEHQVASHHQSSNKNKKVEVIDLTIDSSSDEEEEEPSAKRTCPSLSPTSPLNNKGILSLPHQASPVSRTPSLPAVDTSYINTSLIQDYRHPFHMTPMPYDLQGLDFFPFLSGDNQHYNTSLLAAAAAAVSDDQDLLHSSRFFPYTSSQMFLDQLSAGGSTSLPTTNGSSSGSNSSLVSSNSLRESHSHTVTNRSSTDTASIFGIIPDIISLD
Experimental: (§1) In the indirect procedure, the yeast Matchmaker Two-Hybrid System Clontech and cDNA molecules encoding KChAP and KChAP-Y were used. The binding specificity between full length KChAP or KChAP-Y and the following Kvα, Kvβ and other K+ channel subunit fragments were determined: Kvβ1.2 (amino acids 1-408), Kvβ1.2-N terminus (amino acids 1-79), Kvβ1C (carboxyl terminal 329 amino acids of the Kvβ1 subfamily), Kvβ2 (amino acids 1-367); Kv1.1-N terminus (amino acids 1-168), Kv1.2 N-terminus (amino acids 1-124), Kv1.4 N-terminus (amino acids 1-305), Kv1.4 C-terminus (amino acids 562-654), Kv1.5 N-terminus (amino acids 1-248), Kv2.1 N-terminus (amino acids 1-168), Kv2.2 N-terminus (amino acids 1-185), Kv6.1 N-terminus (amino acids 1-209), Kir2.2 N-terminus (amino acids 1-86), and HERG N-terminus (amino acids 1-396). The ability of human Gα-binding protein (GBP) to bind to these fragments was also determined.
(§2) Protein-protein interactions were tested by co-transformation of the yeast host strain Y190 with a pGAD10 plasmid containing inserts encoding KChAP-Y, KChAP or GBP with a pGBT9 plasmid containing an insert encoding one of the K+ channel protein fragments. pGBT9 is a GAL4 DNA binding domain [BD] vector. Co-transformants were plated on medium lacking trp and leu and grown for 2.5 days at 30° C. Yeast colonies were lifted to paper filters and assayed for β-galactosidase activity. Appearance of blue color within 8 hours was scored as a positive interaction between the proteins encoded by the two plasmids.

[2] = target: T1, KChAP (K+ Channel Associated Protein), …
Experimental: as §1, §2

[3] = target: B1
Experimental: as §1, §2

| Binder | binding result [1] | binding result [2] | binding result [3] |
| --- | --- | --- | --- |
| Kvβ1C (carboxyl terminal 329 amino acids of the Kvβ1 subfamily), in pGBT9 (other, UniProt P04386 1-147, looked up, also called C-terminus of Kvβ1) MKLLSSIEQACDICRLKKLKCSKEKPKCAKCLKNNWECRYSPKTKRSPLTRAHLTEVESRLERLEQLFLLIFPREDLDMILKMDSLQDIKALLTGLFVQDNVNKDAVTDRLASVETDMPLTLRQHRISATSSSEESSNKGQRQLTVSHRNLGKSGLRVSCLGLGTWVTFGGQISDEVAERLMTIAYESGVNLFDTAEVYAAGKAEVILGSIIKKKGWRRSSLVITTKLYWGGKAETERGLSRKHIIEGLKGSLQRLQLEYVDVVFANRPDSNTPMEEIVRAMTHVINQGMAMYWGTSRWSAMEIMEAYSVARQFNMIPPVCEQAEYHLFQREKVEVQLPELYHKIGVGAMTWSPLACGIISGKYGNGVPESSRASLKCYQWLKERIVSEEGRKQQNKLKDLSPIAERLGCTLPQLAVAWCLRNEGVSSVLLGSSTPEQLIENLGAIQVLPKMTSHVVNEIDNILRNKPYSKKDYRS | no binding |  |  |
| Kv2.1 N-terminus (amino acids 1-168), in pGBT9 (other, UniProt P04386 1-147, looked up) MKLLSSIEQACDICRLKKLKCSKEKPKCAKCLKNNWECRYSPKTKRSPLTRAHLTEVESRLERLEQLFLLIFPREDLDMILKMDSLQDIKALLTGLFVQDNVNKDAVTDRLASVETDMPLTLRQHRISATSSSEESSNKGQRQLTVSMPAGMTKHGSRSTSSLPPEPMEIVRSKACSRRVRLNVGGLAHEVLWRTLDRLPRTRLGKLRDCNTHDSLLQVCDDYSLEDNEYFFDRHPGAFTSILNFYRTGRLHMMEEMCALSFSQELDYWGIDEIYLESCCQARYHQKKEQMNEELKREAETLREREGEEFDNTCC | no binding |  |  |
| B1 | no binding | no binding |  |
| KChAP-Y (partial clone of KChAP from W310 to the C-terminus), in pGAD10 (other, not shown: large carriers, also called KChAP-Y plasmid) WTCPVCDKKAPYESLIIDGLFMEILNSCSDCDEIQFMEDGSWCPMKPKKEASEVCPPPGYGLDGLQYSPVQEGNQSENKKRVEVIDLTIESSSDEEDLPPTKKHCPVTSAAIPALPGSKGALTSGHQPSSVLRSPAMGTLGSDFLSSLPLHEYPPAFPLGADIQGLDLFSFLQTESQHYSPSVITSLDEQDTLGHFFQFRGTPPHFLGPLAPTLGSSHRSATPAPAPGRVSSIVAPGSSLREGHGGPLPSGPSLTGCRSDVISLD |  |  | no binding |
